One assay has as its target biotinylated Opr86 extracellular loop synthetic peptide. The assay is described as follows: solution biopanning on biotinylated Opr86 loop peptide in Bushnell-Haas pH 8.5 with 1% Jet-A, three rounds; share of clones.
In turn, “M13 phage displaying OPP4 (LRPLMNR) (peptide)” returned a % Abundance of 3%.

In turn, “M13 phage displaying OPP1 (PRIRKSH) (peptide)” had a % Abundance of 3%.

The substance “M13 phage displaying OPP2 (MHNLNLL) (peptide)” gave a % Abundance of 2%.

“M13 phage displaying OPP5 (IITMKRR) (peptide)” showed a % Abundance of 3%.

The substance “M13 phage displaying OPP6 (RKKSRIR) (peptide)” registered a % Abundance of 2%.

On to “M13 phage displaying OPP3 (LPSTIHR) (peptide)”, for which the % Abundance is 2%.

In a further assay the target is biotinylated OprF1 synthetic peptide (P. aeruginosa). The assay is described as follows: pooled monoclonal phages pulled down on biotinylated OprF1 in Bushnell-Haas with 1% Jet-A; unamplified eluate, share of 30 sequenced clones.
“M13 phage displaying the PPKINIM peptide” yielded a relative percent abundance of 3%.

(Values after patent US20180224449A1.)
